Biological target: T1, receptor binding domain (RBD) of the SARS-CoV-2 spike protein (residues 319-541) (SARS-CoV-2, UniProt P0DTC2 319-541)
T1 construct: also called spike RBD protein
Assay: SPR
Conditions: both partners purified

B1: I54C/K341C (M2) mutant sACE2-Fc (Fc fusion)
chain: QSTIEEQAKTFLDKFNHEAEDLFYQSSLASWNYNTNCTEENVQNMNNAGDKWSAFLKEQSTLAQMYPLQEIQNLTVKLQLQALQQNGSSVLSEDKSKRLNTILNTMSTIYSTGKVCNPDNPQECLLLEPGLNEIMANSLDYNERLWAWESWRSEVGKQLRPLYEEYVVLKNEMARANHYEDYGDYWRGDYEVNGVDGYDYSRGQLIEDVEHTFEEIKPLYEHLHAYVRAKLMNAYPSYISPIGCLPAHLLGDMWGRFWTNLYSLTVPFGQKPNIDVTDAMVDQAWDAQRIFKEAEKFFVSVGLPNMTQGFWENSMLTDPGNVQCAVCHPTAWDLGKGDFRILMCTKVTMDDFLTAHNEMGNIQYDMAYAAQPFLLRNGANEGFHEAVGEIMSLSAATPKHLKSIGLLSPDFQEDNETEINFLLKQALTIVGTLPFTYMLEKWRWMVFKGEIPKDQWMKKWWEMKREIVGVVEPVPHDETYCDPASLFHVSNDYSFIRYYTRTLYQFQFQEALCQAAKHEGPLHKCDISNSTEAGQKLFNMLRLGKSEPWTLALENVVGAKNMNVRPLLNYFEPLFTWLKDQNKNSFVGWSTDWSPYAD
notes: also called M2 sACE2-Fc
- Kd: 22.1 nM
